Measurements: patent publication US20140322196A1

B1: bLf C-lobe (aa 285-689) (protein)
chain: SFQLFGSPPGQRDLLFKDSALGFLRIPSKVDSALYLGSRYLTTLKNLRETAEEVKARYTRVVWCAVGPEEQKKCQQWSQQSGQNVTCATASTTDDCIVLVLKGEADALNLDGGYIYTAGKCGLVPVLAENRKSSKHSSLDCVLRPTEGYLAVAVVKKANEGLTWNSLKDKKSCHTAVDRTAGWNIPMGLIVNQTGSCAFDEFFSQSCAPGADPKSRLCALCAGDDQGLDKCVPNSKEKYYGYTGAFRCLAEDVGDVAFVKNDTVWENTNGESTADWAKNLNREDFRLLCLDGTRKPVTEAQSCHLAVAPNHAVVSRSDRAAHVKQVLLHQQALFGKNGKNCPDKFCLFKSETKNLLFNDNTECLAKLGGRPTYEEYLGTEYVTAIANLKKCSTSPLLEACAFLTR
B2: bLf C-lobe (aa 345-689) (protein)
chain: VVWCAVGPEEQKKCQQWSQQSGQNVTCATASTTDDCIVLVLKGEADALNLDGGYIYTAGKCGLVPVLAENRKSSKHSSLDCVLRPTEGYLAVAVVKKANEGLTWNSLKDKKSCHTAVDRTAGWNIPMGLIVNQTGSCAFDEFFSQSCAPGADPKSRLCALCAGDDQGLDKCVPNSKEKYYGYTGAFRCLAEDVGDVAFVKNDTVWENTNGESTADWAKNLNREDFRLLCLDGTRKPVTEAQSCHLAVAPNHAVVSRSDRAAHVKQVLLHQQALFGKNGKNCPDKFCLFKSETKNLLFNDNTECLAKLGGRPTYEEYLGTEYVTAIANLKKCSTSPLLEACAFLTR

What was measured:
Assay in all cases: cell-based or functional assay
[1] = biological target: Hemagglutinin (HA) of Influenza A virus A/Parma/24/09 (Brisbane-like) (oseltamivir-resistant) H1N1 (Influenza A virus A/Parma/24/09 H1N1)
[2] = biological target: Hemagglutinin (HA) of Influenza A virus A/Wisconsin/67/2005 H3N2 (inactivated subunits, vaccine) (Influenza A virus A/Wisconsin/67/2005 H3N2)
[3] = biological target: Hemagglutinin (HA) of Influenza A virus A/Solomon 3/2006 H1N1 (inactivated subunits, vaccine) (Influenza A virus A/Solomon 3/2006 H1N1)

| Binder | activity on viral hemagglutination (HI) [1] [nM] | activity on viral hemagglutination (HI) [2] [pM] | activity on viral hemagglutination (HI) [3] [pM] |
| --- | --- | --- | --- |
| B1 | 24 | 1.6 | 5 |
| B2 | 10 | 1.2 | 5 |
